# Reference: patent US20160053274
# Tests used:
# Assay in all cases: cell_activity
# [1] = tested on: TALENbar86 monomer 2 (artificial); conditions: tobacco protoplasts, as pair with monomer 1, 13 nt spacer, foreign DNA pTIB235; printed half-site differs from full site as printed (AGCACGGTCAACTTCCCT)
# [2] = tested on: TALENbar86 monomer 1 (artificial); conditions: tobacco protoplasts, as pair with monomer 2, 13 nt spacer, foreign DNA pTIB235; 19.6 with pTCV224, 25.6 with pTCV225
# [3] = tested on: bar meganuclease (cleaving at bar position 479) (artificial); conditions: tobacco protoplasts, targeted insertion with repair DNA pTCV225 (3/164 calli)
# [4] = tested on: TALENbar334 monomer 2 (artificial); conditions: tobacco protoplasts, as pair with monomer 1, 12 nt spacer, foreign DNA pTIB235; 94.35 with pTCV224, 94.09 with pTCV225
# [5] = tested on: TALENbar334 monomer 1 (artificial); conditions: tobacco protoplasts, as pair with monomer 2, 12 nt spacer, foreign DNA pTIB235; 94.35 with pTCV224, 94.09 with pTCV225
sequence,measurement,setting,value
ACGGAAGTTGACCGTGCT (double strand) [bar86 half-site 2],activity,[1],6.25 % mutation
CTGCACCATCGTCAACCA (double strand) [bar86 half-site 1],activity,[2],6.25 % mutation
GGGAACTGGCATGACGTGGGTTTC (double strand) [bar meganuclease site],activity,[3],1.8 % TSI
TGAAGCCCTGTGCCTCCA (double strand) [bar334 half-site 2],activity,[4],76 % mutation
CCACGCTCTACACCCACC (double strand) [bar334 half-site 1],activity,[5],76 % mutation
